Test results: US20240374747A1, “FUSION PROTEIN OF VHH ANTIBODY AND STREPTAVIDIN MUTANT” (The University of Tokyo, priority 2023, published 2024)
Read-outs that look alike come from different tables or passages of the source.

Experiments:
[1] = test system: Her2-positive cells (KPL-4)
Description: Her2-positive cells (KPL-4) were seeded on a 96-well plate to result in a cell count of 1×10^4 cells/well and a culture solution amount of 50 μL/well and were then cultured overnight. […] A reagent was added in accordance with the dosage and administration described in the instruction manual, and the resulting cells were then incubated at 37° C. in a CO2 incubator for 1.5 hours. […] Thereafter, the control was set at 100%, and the cell proliferation percentage to the control under individual conditions was calculated.

[2] = SPR analysis of interaction between Anti-HER2 VHH-Cupid and Psyche-Duocarmycin (Biacore T200); assay type: binding
Description: The surface plasmon resonance (SPR) analysis was performed using a Biacore T200 (Cytiva). […] The association and dissociation rate constants were evaluated using Biacore T200 Evaluation Software version 3 (Cytiva) by bivalent analyte model, and KD values were calculated.

[3] = test system: Her2-positive cells (KPL-4); assay type: cell-based
Description: Her2-positive cells (KPL-4) were seeded on a 96-well plate to result in a cell count of 1×10^3 cells/well and a culture solution amount of 50 μL/well and were then cultured overnight. […] After the dilution series had been prepared, 50μ of the complex was each added to the cells, and the cells are cultured for 6 to 7 days. […] A reagent was added in accordance with the dosage and administration described in the instruction manual, and the resulting cells were then incubated at 37° C. in a CO2 incubator for 1.5 hours. After that, the absorbance at 450 nm was measured, and the mean value was then calculated, followed by background correction. Thereafter, the control was set at 100%, and the cell proliferation percentage to the control under individual conditions was calculated.

[4] = pH conditions of dialysis buffer for tetramer formation (non-reducing electrophoresis, densitometry); assay type: physicochemical; settings: dialyzed with refolding buffer B (pH 8.0) to remove guanidine hydrochloride
[5] = as above; assay type: physicochemical
Description: Then, the sample was put into dialysis tube and dialyzed with buffers (50 mM sodium phosphate, 400 mM arginine HCl, pH 4.0˜8.0). 100 μL of the sample after refolding was dialyzed at 25° C. for 1 hour using 30 mL of buffer and the Mini Dialysis Kit 1 kD (Cytiva). Thereafter, dialysis was performed at 4° C. for 18 hours with 30 mL of fresh buffer, followed by overnight dialysis at 4° C. with 30 mL of fresh buffer. The post-dialysis samples from each pH condition were analyzed by non-reducing electrophoresis and the result image was shown in FIG. 7. […] As shown in FIG. 7 and Table 2, the monomers were equal to or less than 8% and the tetramers were equal to or more than 92% in pH of 6.0 or less, whereas the percentage of monomers increased at a pH of 6.5 or more. At pH 8.0, the same as the pH of refolding buffer B, 81% of the monomers and 19% of the tetramers were present. […] The theoretical pIs of Anti-HER2 VHH and Cupid moieties were approximately 7.6 and 6.5, respectively. Therefore, it is preferable that a buffer for tetramer formation should be pH 6.0 or less to avoid aggregation induced by the Cupid moiety.

B1: Anti-HER2 VHH-Cupid: fusion protein of an anti-HER2 VHH single-domain antibody (SEQ ID NO: 2), Gly-Ser linker and Cupid mutant streptavidin; forms a tetramer (protein)
chain: MQVQLQESGGGSVQAGGSLKLTCAASGYIFNSCGMGWYRQSPGRERELVSRISGDGDTWHKESVKGRFTISQDNVKKTLYLQMNSLKPEDTAVYFCAVCYNLETYWGQGTQVTVSSGGGGSGGGGSGGGGSAEAGITGTWSDQLGDTFIVTAGADGALTGTYENAVGGAESRYVLTGRYDSAPATDGSGTALGWTVAWKNNSKNAHSATTWSGQYVGGADAKINTQWLLTSGTTNANAWKSTLVGHDTFTKVKPSAASHHHHHH
modifications: tetramer
notes: forms a tetramer
cytotoxic activity compared with FL2 as vector [1]: stronger cytotoxic activity than FL2
association rate constant (Ka1) ([2]; Anti-HER2 VHH-Cupid captured via anti-histidine antibody, Psyche-Duocarmycin analyte 10 nM to 0.3125 nM, bivalent analyte model): 1.336×10^4 l/Ms
binding activity to Psyche-Duocarmycin ([2]; SPR): had binding activity to Psyche-Duocarmycin
cytotoxic activity compared with FL2 as vector [3]: stronger cytotoxic activity than FL2
oligomeric state after dialysis with refolding buffer B [4]: almost all of the Anti-HER2 VHH-Cupid were monomeric
Monomer band (%) ([5]; dialysis buffer pH 4.0): 4%
Tetramer band (%) ([5]; dialysis buffer pH 4.0): 96%
Monomer band (%) ([5]; dialysis buffer pH 5.0): 6%
Tetramer band (%) ([5]; dialysis buffer pH 5.0): 94%
Monomer band (%) ([5]; dialysis buffer pH 5.5): 8%
Tetramer band (%) ([5]; dialysis buffer pH 5.5): 92%
Monomer band (%) ([5]; dialysis buffer pH 6.0): 8%
Tetramer band (%) ([5]; dialysis buffer pH 6.0): 92%
Monomer band (%) ([5]; dialysis buffer pH 6.5): 13%
Tetramer band (%) ([5]; dialysis buffer pH 6.5): 87%
Monomer band (%) ([5]; dialysis buffer pH 7.0): 35%
Tetramer band (%) ([5]; dialysis buffer pH 7.0): 65%
Monomer band (%) ([5]; dialysis buffer pH 7.5): 77%
Tetramer band (%) ([5]; dialysis buffer pH 7.5): 23%
Monomer band (%) ([5]; dialysis buffer pH 8.0): 81%
Tetramer band (%) ([5]; dialysis buffer pH 8.0): 19%
tetramer formation of the refolded sample ([5]; dialysis buffers pH 4.0-8.0, FIG. 7): formed tetramers in pH-dependent manner
percentage of monomers ([5]; pH of 6.0 or less): ≤ 8%
percentage of tetramers ([5]; pH of 6.0 or less): ≥ 92%
